Where no end group is shown, it is not given here. [ ]: non-standard residue; d: D form. K(dye 2) = not defined here; K(tet) = not defined here; Orn = NCCC[C@H](N)C(=O)O; C12 = C12 group (lipid); C11 = C11 lipid
Tests used:
[1] = side chain (imidazole of histidine; cysteine); cited from earlier work
[2] = biological target: protein kinase Akt3/PKBγ (Homo sapiens, UniProt Q9Y243); experiment: Fluorogenic kinase assay with Akt3/PKBγ, rate of reaction, two vs one hydrophobic moiety; type: biochemical; conditions: compared with one-hydrophobic-moiety substrate C15OOOK(dye2)RPRTSSF-NH2; substrates 8 μM, Akt3/PKBγ 6 nM, ATP 100 μM (FIG. 5)
Sequence of protein kinase Akt3/PKBγ (Q9Y243 whole entry): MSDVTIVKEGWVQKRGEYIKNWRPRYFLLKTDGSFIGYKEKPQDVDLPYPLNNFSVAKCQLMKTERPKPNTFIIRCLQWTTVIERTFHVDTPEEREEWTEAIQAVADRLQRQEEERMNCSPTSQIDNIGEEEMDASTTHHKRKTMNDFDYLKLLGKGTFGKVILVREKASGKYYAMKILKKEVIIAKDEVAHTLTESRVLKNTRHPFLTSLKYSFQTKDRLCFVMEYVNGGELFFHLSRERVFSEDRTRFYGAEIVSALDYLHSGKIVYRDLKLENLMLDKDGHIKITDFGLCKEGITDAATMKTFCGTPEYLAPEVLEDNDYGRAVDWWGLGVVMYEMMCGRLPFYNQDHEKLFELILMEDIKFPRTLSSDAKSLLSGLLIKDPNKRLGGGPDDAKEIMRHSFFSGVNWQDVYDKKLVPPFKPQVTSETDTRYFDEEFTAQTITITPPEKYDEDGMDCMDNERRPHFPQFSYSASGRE
Experimental: Tet is the fluorescein dye 2′,7′,4,7-tetachloro-5-carboxy fluorescein.
(§1) Kinase assays were performed using Corning 384-well, black, non-binding surface (NBS), microwell plates. Fluorescence was read in real time using a […] Gemini XS plate reader, with excitation and emission set at 500 and 550 respectively. The plate was read every minute for one hour at ambient temperature
Concentrations of dye-labeled peptides were determined by dilution of the purified peptides into dimethylformamide (200 μL) with 1 M NaOH (5 μL) and measuring the absorbance of either 5-carboxy-2′,7′-dipyridyl-sulfonefluorescein (i.e. dye2) at its absorbance maximum (548 nm) or 2′,7′,4,7-tetachloro-5-carboxy fluorescein (i.e. 2′,7′-dichloro-5-carboxy-4,7-dichlorofluorescein or “tet”) at its absorbance maximum (541 nm). The extinction coefficient of both dyes was assumed to be 80,000 cm^−1M^−1.

[3] = biological target: protein kinase p38βII (Homo sapiens, UniProt Q15759); experiment: Fluorogenic kinase assay with p38βII, rates at varying ATP fitted to Michaelis-Menton equation; type: biochemical; conditions: p38bII 14 nM; 20 mM Tris pH 7.4, MgCl2 5 mM, DTT 5 mM; read 1 hour; read-out: apparent Km of ATP
Sequence of protein kinase p38βII (Q15759 whole entry): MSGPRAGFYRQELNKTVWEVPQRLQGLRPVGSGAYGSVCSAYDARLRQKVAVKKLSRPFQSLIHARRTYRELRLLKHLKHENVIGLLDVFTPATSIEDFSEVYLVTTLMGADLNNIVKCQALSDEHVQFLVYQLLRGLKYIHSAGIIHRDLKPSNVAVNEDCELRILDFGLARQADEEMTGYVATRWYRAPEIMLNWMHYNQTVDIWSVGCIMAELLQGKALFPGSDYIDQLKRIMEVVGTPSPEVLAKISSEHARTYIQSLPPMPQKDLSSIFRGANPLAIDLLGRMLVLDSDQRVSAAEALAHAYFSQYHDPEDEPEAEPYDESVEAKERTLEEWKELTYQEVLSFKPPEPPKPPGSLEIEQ
Description: A comparison of the rates of reaction for a kinase substrate comprising two hydrophobic moieties (i.e. C12OOK(dye 2)RRIPLSPOOK(C12)NH2, (peptide disclosed as SEQ ID NO: 20) used at a concentration of 2 μm and referred to herein as compound 2) versus a kinase substrate comprising a single hydrophobic moiety (i.e.C16OOK(dye 2)[…]2, (peptide disclosed as SEQ ID NO: 20) used at a concentration of 4 μm; and referred to herein as compound 4) for several concentrations of ATP (0, 5, 10, 20, 50, 100, 200, and 500 μM) is shown in FIGS. 4A and 4B. […] The rates of the reaction were fitted to the Michaelis-Menton equation. […]
as §1
Concentrations of dye-labeled peptides were determined by dilution of the purified peptides into dimethylformamide (200 μL) with 1 M NaOH (5 μL) and measuring the absorbance of either 5-carboxy-2′,7′-dipyridyl-sulfonefluorescein (i.e. dye2) at its absorbance maximum (548 nm) or 2′,7′,4,7-tetachloro-5-carboxy fluorescein (i.e. 2′,7′-dichloro-5-carboxy-4,7-dichlorofluorescein or “tet”) at its absorbance maximum (541 nm). […]

Compound | Km [3] [µM] | other results
N[C@@H](Cc1c[nH]cn1)C(=O)O [Histidine (H), Histidine] |  | pK [1]: about 7
C11OOK(tet)ArgProArgThrSerSerPheOOK(C11)NH2 ({C11-Orn-Orn-K(tet)}-RPRTSSF[Orn][Orn]-{K(C11)-NH2}; not fully specified; printed as C11OOK(tet)ArgProArgThrSerSerPheOOK(C11)NH2; reading uncertain) [compound 3, kinase substrate for Akt3/PKBγ with two C11 hydrophobic moieties and tet dye] |  | signal to noise ratio [2]: improved signal to noise ratio
C12OOK(dye 2)ArgArgIleProLeuSerProOOK(C12)NH2 ({C12-Orn-Orn-K(dye 2)}-RRIPLSP[Orn][Orn]-{K(C12)-NH2}; not fully specified; printed as C12OOK(dye 2)ArgArgIleProLeuSerProOOK(C12)NH2; reading uncertain) [compound 2, kinase substrate for p38βII with two C12 hydrophobic moieties and Dye 2] | 90 | 
C16OOK(dye 2)RRIPLSPNH2 (RRIPLSP-NH2; not fully specified (N-terminus); printed as C16OOK(dye 2)RRIPLSPNH2) [compound 4, comparison kinase substrate with a single hydrophobic moiety] | > 200 | 
